Assay results published in patent publication US8465945B2, “Method for production and use of mite group 1 proteins” (Merck Patent GmbH, priority 1999, dated 2013).

Tests used:
[1] = system: IgE from mite-allergic dog sera; test: ELISA, binding of IgE from dog sera to coated Der f 1 proteins or mite extracts, detected with FcεR1α-biotin
[2] = system: anti-Der f 1 MAb 6A8 (capture) and anti-Der f 1 MAb 4C1 (detection); test: Monoclonal Capture ELISA; type: binding
Description: Assays were carried out as follows. A microtiter plate as described in Example 5 was coated overnight at 4° C. with 100 ng/well of anti-Der f 1 protein monoclonal antibody 6A8, denoted herein as anti-Der f 1 MAb 6A8, provided by Dr. Martin Chapman. The plate was washed in the manner described above. The following proteins were then added to wells, having been diluted in Assay Buffer in a 2-fold dilution series, from 0.75 to 50 ng/well: Heska native Derf1, P. pastoris-expressed PDerf1303b, and E. coli-expressed PDerf1303c. After incubation for 1 hour at room temperature, plates were washed as described in Example 5. Then 100 μl per well of a 1:1000 dilution in Assay Buffer of biotinylated anti-Der f 1 monoclonal antibody 4C1, also denoted anti-Der f 1 MAb 4C1, provided by Dr. Martin Chapman, was added for 1 hour at room temperature. Plates were washed, streptavidin-HRP conjugate was added, and plates were developed as described in Example 5.

B1: PDerf1303b: Recombinant Der f 1 expressed by P. pastoris HCY215 from nDerf1909b (pro-form, SEQ ID NO:29); actually secreted as mature form (protein, listed as Dermatophagoides farinae)
chain: RPASIKTFEEFKKAFNKNYATVEEEEVARKNFLESLKYVEANKGAINHLSDLSLDEFKNRYLMSAEAFEQLKTQFDLNAETSACRINSVNVPSELDLRSLRTVTPIRMQGGCGSCWAFSGVAATESAYLAYRNTSLDLSEQELVDCASQHGCHGDTIPRGIEYIQQNGVVEERSYPYVAREQRCRRPNSQHYGISNYCQIYPPDVKQIREALTQTHTAIAVIIGIKDLRAFQHYDGRTIIQHDNGYQPNYHAVNIVGYGSTQGDDYWIVRNSWDTTWGDSGYGYFQAGNNLMMIEQYPYVVIM
OD, bound IgE ([1]; Assay Number 1, serum dog pool): 364 OD multiplied by 1000 | OD, bound IgE ([1]; Assay Number 1, serum dog-1): 21 OD multiplied by 1000 | OD, bound IgE ([1]; Assay Number 1, serum dog-2): 1490 OD multiplied by 1000 | OD, bound IgE ([1]; Assay Number 1, serum dog-3): 2499 OD multiplied by 1000 | OD, bound IgE ([1]; Assay Number 2, dog sera pool A 146): 199 OD multiplied by 1000 | OD, bound IgE ([1]; Assay Number 2, dog sera pool KS338): 27 OD multiplied by 1000 | reactivity: share of dog serum samples reactive to native Der f 1 proteins that are also reactive to the recombinant protein ([1]; Table 1, 3 dog serum samples): 100% | OD, protein captured by MAb 6A8 and detected by MAb 4C1 ([2]; 0.75 ng protein per well): 405 OD | OD, protein captured by MAb 6A8 and detected by MAb 4C1 ([2]; 1.5 ng protein per well): 916 OD | OD, protein captured by MAb 6A8 and detected by MAb 4C1 ([2]; 2.5 ng protein per well): 2088 OD | OD, protein captured by MAb 6A8 and detected by MAb 4C1 ([2]; 3.1 ng protein per well): 1544 OD | OD, protein captured by MAb 6A8 and detected by MAb 4C1 ([2]; 6.25 ng protein per well): 1961 OD | OD, protein captured by MAb 6A8 and detected by MAb 4C1 ([2]; 25 ng protein per well): 2156 OD | OD, protein captured by MAb 6A8 and detected by MAb 4C1 ([2]; 50 ng protein per well): 2148 OD
